B1: Beclin 1 coiled coil (CC) domain (residues 174–266), wild type, untagged (domain or fragment)
chain: DSEQLQRELKELALEEERLIQELEDVEKNRKVVAENLEKVQAEAERLDQEEAQYQREYSEFKRQQLELDDELKSVENQMRYAQMQLDKLKKTN
B2: CC region of mouse UVRAG (residues 228–298) (domain or fragment)
chain: TSNELKKESECLRLKILVLRNELERQKKALGREVAFLHKQQMALQDKGSAFSTEHGKLQLQKDSLSELRKE
B3: CC region of rat Atg14L (residues 88–178) (domain or fragment)
chain: KQEEFQKEVLKAMEGKRLTDQLRWKIMSCKMRIEQLKQTICKGNEEMKKNSEGLLKNKEKNQKLYSRAQRHQEKKEKIQRHNRKLGDLVEK
B4: Beclin 1 CC domain MutStab E189L/A217L/E224L/A255L (domain or fragment)
chain: B1 chain with E16L, A44L, E51L, A82L

Series [1] deals with CC region of mouse UVRAG (residues 228–298) (mouse) (UniProt Q8K245). Nature of the series: ITC. (Isothermal titration calorimetry measures the heat released or taken up as one component is titrated into another.)
The series “ITC” deals with the molecule itself. Nature of the series: ITC.
Series [2] has as its target B3. The series can be described thus: ITC.
For series [3], the target named is B2. The series can be described thus: ITC.
Series [4] has as its target B1. Nature of the series: ITC.
The target in series [5] is Beclin 1 CC domain MutM L178A/L259A (rat, UniProt Q91XJ1 174-266, L178A | L259A). Nature of the series: ITC.
Chain of Beclin 1 CC domain MutM L178A/L259A (Q91XJ1 174-266 L178A/L259A): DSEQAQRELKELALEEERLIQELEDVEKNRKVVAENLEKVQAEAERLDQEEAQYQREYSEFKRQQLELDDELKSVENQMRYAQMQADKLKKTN
Series [6] deals with Beclin 1 CC domain MutM L178A/L192A (rat, UniProt Q91XJ1 174-266, L178A | L192A). The series can be described thus: ITC.
Series [7] has as its target Beclin 1 CC domain MutM L178A/L196A (rat, UniProt Q91XJ1 174-266, L178A | L196A). Nature of the series: ITC.
The target in series [8] is Beclin 1 CC domain MutStab E224L (rat, UniProt Q91XJ1 174-266, E224L). Nature of the series: ITC.
The series “AUC” deals with the molecule itself. Nature of the series: AUC.

Positions count from the first letter of the chain named. In names and notes the source's numbering stands.

The molecule “Beclin 1 CC domain MutM L178A/L192A (from UniProt Q91XJ1 174-266) (domain or fragment)” returned a Kd in [1] of 2.24 µM.

Regarding “Beclin 1 CC domain MutM L178A/L196A (from UniProt Q91XJ1 174-266) (domain or fragment)”, in series [1], the Kd was found to be 1.14 µM.

Turning to “Beclin 1 CC domain MutM L178A/L259A (from UniProt Q91XJ1 174-266) (domain or fragment)”, in [1], the Kd worked out at 0.07 µM.

For the molecule “Beclin 1 CC domain MutStab A217L/E224L (from UniProt Q91XJ1 174-266) (domain or fragment)”, in series [1], the Kd worked out at 1.44 µM and the stoichiometry N came to 1.

“Beclin 1 CC domain MutStab A217L/E224L/A255L (from UniProt Q91XJ1 174-266) (domain or fragment)” yielded a Kd in series [1] of 4.24 µM.

Molecule “Beclin 1 CC domain MutStab E189L (from UniProt Q91XJ1 174-266) (domain or fragment)” gave a Kd in [1] of 1.13 µM.

Molecule “Beclin 1 CC domain MutStab E189L/A217L/E224L/A255L (from UniProt Q91XJ1 174-266) (domain or fragment)” returned a Kd in series [1] of 8.7 µM. This Kd is about 7.7-fold higher than that of the molecule before.

In series [1], “Beclin 1 CC domain MutStab E189L/A255L (from UniProt Q91XJ1 174-266) (domain or fragment)” displayed a Kd of 1.31 µM and a stoichiometry N of 1.

In [1], “Beclin 1 CC domain MutStab E224L (from UniProt Q91XJ1 174-266) (domain or fragment)” displayed a Kd of 2.43 µM.

B1 came in with a Kd in the series “ITC” of about 89 µM. Moreover, the “stoichiometry N” value in [2] and in series [3] was 1 in each case.

In the case of B2, the Kd in [4] came out at 0.24 ± 0.06 µM.

B3: the Kd came to 1.2 ± 0.13 µM in [5]; 4.61 ± 0.5 µM in series [6]; 3.22 ± 0.95 µM in [4]; 6.85 ± 0.84 µM in [7]; 8.85 ± 0.4 µM in series [8].

For B4, the “stoichiometry N” value in “AUC” was 4.

Usually Kd stands for a measure of binding affinity in units of concentration. Read a high Kd as lower affinity. In general, stoichiometry N refers to a count of units in the complex or per binding partner.

Values taken from publication PMC3293417 (Nature Communications, 2012).
